Source: US20120135912A1 (PERSEID THERAPEUTICS, published 2012)
Positions count from the first letter of the chain named. In names and notes the source's numbering stands.

B1: 2D-VCAM-1 variant Clone 146 (ligand, not shown: small tags and cut ends)
chain: FKIETTPESRYLAQIGDSVSLTCSTTGCESPLFFWRPLLDSPLNGKVTNEGTTSTLTMNPVSFGNEHSYLCTARCESRSLEKGIQVEIYSFPKDPEIHLSGPLEAGKPITVKCSVADVYPFDRLEIDLLKGDHLMKSQEFLEDADRKSLETKSLEVTFTPVIEDIGKVLVCRAKLHIDEMDSVPTVRQAVKELQVYISP
B2: Q38L-2D-VCAM-1 (ligand)
chain: B1 chain with L32F, F34S, P37T, L39I, R74T, S79K
notes: also called Q38L 2D-VCAM-1 polypeptide; not shown: His tag

Key:
[1] = target: T1, human VLA4-Fc (alpha4-Fc/beta1-Fc heterodimer) (human); assay: SPR (BIACORE), VLA4-Fc captured by anti-human IgG, 1 mM MnCl2, 1:1 Langmuir; standard BIACORE assay, first preparation (Table 5A); activated VLA4 (Mn2+)
T1 construct: Soluble heterodimer from CHO cells, Protein A purified; also called VLA-Fc
T1 sequence (chain, as listed by the source limits assumed, form in doubt, chain 1 of 2): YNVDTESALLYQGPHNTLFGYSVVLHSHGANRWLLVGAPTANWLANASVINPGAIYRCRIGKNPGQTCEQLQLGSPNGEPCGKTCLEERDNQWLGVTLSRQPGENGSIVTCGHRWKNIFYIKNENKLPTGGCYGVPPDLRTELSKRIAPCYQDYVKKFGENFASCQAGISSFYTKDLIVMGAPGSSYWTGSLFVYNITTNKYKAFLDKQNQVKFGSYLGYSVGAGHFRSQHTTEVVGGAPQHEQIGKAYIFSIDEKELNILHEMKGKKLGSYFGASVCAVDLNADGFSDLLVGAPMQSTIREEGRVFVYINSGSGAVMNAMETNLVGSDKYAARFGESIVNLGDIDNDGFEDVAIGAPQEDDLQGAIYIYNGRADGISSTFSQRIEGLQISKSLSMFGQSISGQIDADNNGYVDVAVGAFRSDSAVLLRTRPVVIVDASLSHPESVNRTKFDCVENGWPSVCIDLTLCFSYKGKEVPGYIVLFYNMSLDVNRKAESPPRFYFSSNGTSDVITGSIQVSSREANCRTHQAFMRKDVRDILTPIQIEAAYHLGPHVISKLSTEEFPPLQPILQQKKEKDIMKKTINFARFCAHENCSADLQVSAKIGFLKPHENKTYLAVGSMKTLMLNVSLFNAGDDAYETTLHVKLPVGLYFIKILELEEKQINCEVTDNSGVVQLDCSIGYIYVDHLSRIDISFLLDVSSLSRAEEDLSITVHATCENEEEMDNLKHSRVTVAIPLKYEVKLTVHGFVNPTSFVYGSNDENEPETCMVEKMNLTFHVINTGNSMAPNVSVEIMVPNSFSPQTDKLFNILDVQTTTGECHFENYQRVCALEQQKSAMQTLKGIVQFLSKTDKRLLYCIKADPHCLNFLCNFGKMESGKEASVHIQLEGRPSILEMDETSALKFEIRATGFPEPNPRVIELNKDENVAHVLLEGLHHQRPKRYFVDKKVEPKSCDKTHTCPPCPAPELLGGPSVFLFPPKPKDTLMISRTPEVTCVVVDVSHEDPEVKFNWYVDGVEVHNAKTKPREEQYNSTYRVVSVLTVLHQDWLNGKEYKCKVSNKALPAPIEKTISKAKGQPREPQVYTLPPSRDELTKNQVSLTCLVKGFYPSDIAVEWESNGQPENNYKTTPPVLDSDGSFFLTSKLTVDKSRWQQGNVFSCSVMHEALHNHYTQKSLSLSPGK
T1 sequence (chain, as listed by the source limits assumed, form in doubt, chain 2 of 2): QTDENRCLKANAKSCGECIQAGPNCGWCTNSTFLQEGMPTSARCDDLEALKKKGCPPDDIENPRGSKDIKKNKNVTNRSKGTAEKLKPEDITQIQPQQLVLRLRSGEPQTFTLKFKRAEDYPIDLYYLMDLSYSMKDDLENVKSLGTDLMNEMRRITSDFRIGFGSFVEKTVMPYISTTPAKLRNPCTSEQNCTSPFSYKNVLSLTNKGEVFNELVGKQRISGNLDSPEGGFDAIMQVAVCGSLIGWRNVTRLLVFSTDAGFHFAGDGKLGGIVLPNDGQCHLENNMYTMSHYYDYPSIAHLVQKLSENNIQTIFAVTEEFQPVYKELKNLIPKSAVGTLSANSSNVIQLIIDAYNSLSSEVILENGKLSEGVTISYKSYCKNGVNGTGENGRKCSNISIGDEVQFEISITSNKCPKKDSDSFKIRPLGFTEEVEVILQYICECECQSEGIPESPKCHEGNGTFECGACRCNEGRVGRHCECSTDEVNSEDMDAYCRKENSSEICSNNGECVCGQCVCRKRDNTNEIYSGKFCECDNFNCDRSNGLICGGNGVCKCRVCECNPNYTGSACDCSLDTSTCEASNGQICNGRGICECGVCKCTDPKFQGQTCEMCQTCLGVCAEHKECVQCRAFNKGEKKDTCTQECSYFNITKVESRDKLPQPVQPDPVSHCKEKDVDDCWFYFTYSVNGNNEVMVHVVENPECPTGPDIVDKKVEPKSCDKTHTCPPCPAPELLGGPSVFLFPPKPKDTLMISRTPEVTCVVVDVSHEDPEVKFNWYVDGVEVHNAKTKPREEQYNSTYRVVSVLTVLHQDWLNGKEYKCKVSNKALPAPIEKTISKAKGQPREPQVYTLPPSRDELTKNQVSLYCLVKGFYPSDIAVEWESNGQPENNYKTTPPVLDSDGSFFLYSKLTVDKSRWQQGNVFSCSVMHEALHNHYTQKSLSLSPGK
Method: All BIACORE analyses were performed on a BIACORE 2000 system or BIACORE 3000 system (GE Healthcare) at room temperature (RT, 25° C.), HBS-P buffer (10 mM Hepes (pH 7.4), 150 mM NaCl, 0.005% surfactant P20) supplemented with 1 mM MnCl₂ (HBS-P-Mn) was used as the flow buffer for all experiments except where indicated.
The kinetic 2D-VCAM-1 assay measures binding kinetics of a dimeric ligand (e.g., VLA-Fc fusion protein or LPAM-1-Fc fusion protein) coated to sensor chips and monomeric analyte (e.g., 2D-VCAM-1 variant polypeptides) in the mobile phase. Goat anti-human IgG antibody (Jackson ImmunoResearch, Catalog No. 105-005-098) was immobilized on CM-5 sensor chips (GE Healthcare, Catalog No. BR-1000-14) according to the manufacturer's protocol. Antibody was diluted to 30 μg/ml in immobilization buffer (10 mM sodium acetate, pH 5.0 (GE Healthcare, Catalog No. BR-1003-51)). […] Un-reacted sites were quenched with 35 μl of 1 M ethanolamine-HCl pH 8.5 (GE Healthcare, Catalog No. BR-1000-50). This procedure typically yielded 15,000 response units (RU) of coupled antibody. VLA4-Fc or LPAM-1-Fc, prepared as described in Examples 3 and 4, respectively, were bound to antibody-coated sensor chips by injection of 20 μl of ligand solution (20 μg/ml protein in HBS-P-Mn buffer at a flow rate of 10 μl/min). Ligand capture levels were typically 200-300 RU. […]

[2] = target: T2, human VLA4 (integrin alpha4beta1) on the surface of U937 cells (human, UniProt P13612 34-1032; P05556 21-798); assay: static cell adhesion assay: U937 cells on immobilized 7D-VCAM-1 in the presence of the soluble polypeptide; blocked ligand: immobilized 7D-VCAM-1 (Example 13)
T2 construct: whole, on cells; Endogenous VLA4 of U937 cells; assay buffer held 1 mM each of CaCl2, MgCl2 and MnCl2; also called cell-surface human VLA4
T2 sequence (P13612 34-1032, chain 1 of 2): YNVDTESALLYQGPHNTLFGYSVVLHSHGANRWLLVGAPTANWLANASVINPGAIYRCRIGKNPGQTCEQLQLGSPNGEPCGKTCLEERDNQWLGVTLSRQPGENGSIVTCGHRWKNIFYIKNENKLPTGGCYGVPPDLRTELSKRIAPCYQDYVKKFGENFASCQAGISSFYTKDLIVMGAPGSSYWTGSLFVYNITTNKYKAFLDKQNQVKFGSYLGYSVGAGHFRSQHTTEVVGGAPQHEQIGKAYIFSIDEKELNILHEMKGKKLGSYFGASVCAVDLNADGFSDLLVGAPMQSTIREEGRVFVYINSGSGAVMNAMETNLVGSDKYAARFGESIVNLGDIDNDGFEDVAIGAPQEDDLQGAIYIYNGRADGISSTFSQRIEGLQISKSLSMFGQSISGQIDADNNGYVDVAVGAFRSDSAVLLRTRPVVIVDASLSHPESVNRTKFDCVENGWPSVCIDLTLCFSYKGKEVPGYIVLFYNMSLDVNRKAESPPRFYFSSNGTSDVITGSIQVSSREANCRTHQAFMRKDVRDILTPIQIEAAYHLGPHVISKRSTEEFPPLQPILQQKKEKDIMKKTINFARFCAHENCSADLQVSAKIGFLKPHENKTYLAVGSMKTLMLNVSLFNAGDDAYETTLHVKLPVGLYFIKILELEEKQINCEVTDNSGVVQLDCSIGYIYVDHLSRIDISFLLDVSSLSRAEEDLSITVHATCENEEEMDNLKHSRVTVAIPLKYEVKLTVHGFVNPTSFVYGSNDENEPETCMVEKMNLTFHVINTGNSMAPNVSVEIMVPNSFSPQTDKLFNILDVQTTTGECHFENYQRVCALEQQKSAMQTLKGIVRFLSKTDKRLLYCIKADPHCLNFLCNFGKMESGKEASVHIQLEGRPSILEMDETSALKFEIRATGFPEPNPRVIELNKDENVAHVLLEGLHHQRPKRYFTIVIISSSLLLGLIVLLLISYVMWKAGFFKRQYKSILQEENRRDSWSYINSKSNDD
T2 sequence (P05556 21-798, chain 2 of 2): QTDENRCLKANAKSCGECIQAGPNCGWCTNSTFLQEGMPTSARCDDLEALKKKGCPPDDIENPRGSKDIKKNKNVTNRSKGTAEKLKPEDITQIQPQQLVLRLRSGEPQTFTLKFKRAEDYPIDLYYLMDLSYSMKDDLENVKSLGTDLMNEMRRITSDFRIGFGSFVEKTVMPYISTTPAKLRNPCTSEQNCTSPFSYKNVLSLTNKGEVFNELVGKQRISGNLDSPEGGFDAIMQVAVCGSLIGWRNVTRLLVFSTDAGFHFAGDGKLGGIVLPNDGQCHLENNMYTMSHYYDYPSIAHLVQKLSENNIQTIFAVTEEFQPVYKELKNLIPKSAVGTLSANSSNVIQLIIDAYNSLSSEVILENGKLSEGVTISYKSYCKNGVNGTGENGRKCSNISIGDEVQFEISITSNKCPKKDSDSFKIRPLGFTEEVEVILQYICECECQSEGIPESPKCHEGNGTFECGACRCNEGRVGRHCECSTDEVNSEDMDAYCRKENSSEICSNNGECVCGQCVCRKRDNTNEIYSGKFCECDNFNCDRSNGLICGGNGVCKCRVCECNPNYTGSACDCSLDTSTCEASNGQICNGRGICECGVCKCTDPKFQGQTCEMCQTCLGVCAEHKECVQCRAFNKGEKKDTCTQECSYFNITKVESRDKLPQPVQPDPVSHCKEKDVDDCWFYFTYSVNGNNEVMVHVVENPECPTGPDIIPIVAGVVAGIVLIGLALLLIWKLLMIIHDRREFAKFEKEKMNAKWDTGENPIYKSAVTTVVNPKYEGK
Method: Prior to assaying, the U937 cells were re-suspended in labeling buffer (RPMI 1640 culture media without phenol red, 10% FBS; Invitrogen), then labeled with 0.5 μg/ml Calcein-AM at 37° C. for 30 minutes on a rotator. Subsequently, the cells were washed three times with labeling buffer then resuspended at 5×10^6 cells/ml in assay buffer (HEPES CaMgMn buffer: 50 mM HEPES, 150 mM NaCl, 1 mM CaCl₂, 1 mM MgCl₂, 1 mM MnCl2 pH 7.4).
The test compounds (i.e., the 2D-VCAM-1 variant polypeptides) were diluted in dilution buffer and added to VCAM-1-coated plates. […] Plates were spun down at 280×g for 5 minutes with assay buffer decanted by inversion before measuring fluorescence intensity (excitation=485 nm, emission=530 nm) with LJL Analyst HT 96.384 (Molecular Devices, Sunnyvale, Calif.).
FIG. 5 is a graph showing the cell adhesion index for anti-VLA4-antibody (used as a positive control for maximal inhibition of cell adherence), dilution buffer alone (“no treatment”, a control to show maximal cell adherence to the immobilized VCAM-1), 2D-VCAM-1 valiant Clone 46 (SEQ ID NO:12), Q38L-2D-VCAM-1 polypeptide (SEQ ID NO:10), and human 2D-VCAM-1 (SEQ ID NO:2). The cell adhesion index was calculated as (fluorescence intensity, VCAM-coated well)/(fluorescence intensity, non-CAM-1-coated well). […]

Binder	Kd [1] [nM]	binding result [2]
B1	0.0497	–
B2	–	binds
